According to FireProtDB (doi:10.1073/pnas.0711253105):
“And” between values parts separate entries of the source, which are not always exact repeats. Equal entries are not always repeated.

Conditions: Meleagris gallopavo; pH 8; Thermal; Activity; Tris 20 mM; NaCl 0.4 M; structure 2VT4

Chain of Beta-1 adrenergic receptor R68S|M90V|V230A|F327A|A334L, P07700 R68S M90V V230A F327A A334L (P07700 whole entry R68S/M90V/V230A/F327A/A334L): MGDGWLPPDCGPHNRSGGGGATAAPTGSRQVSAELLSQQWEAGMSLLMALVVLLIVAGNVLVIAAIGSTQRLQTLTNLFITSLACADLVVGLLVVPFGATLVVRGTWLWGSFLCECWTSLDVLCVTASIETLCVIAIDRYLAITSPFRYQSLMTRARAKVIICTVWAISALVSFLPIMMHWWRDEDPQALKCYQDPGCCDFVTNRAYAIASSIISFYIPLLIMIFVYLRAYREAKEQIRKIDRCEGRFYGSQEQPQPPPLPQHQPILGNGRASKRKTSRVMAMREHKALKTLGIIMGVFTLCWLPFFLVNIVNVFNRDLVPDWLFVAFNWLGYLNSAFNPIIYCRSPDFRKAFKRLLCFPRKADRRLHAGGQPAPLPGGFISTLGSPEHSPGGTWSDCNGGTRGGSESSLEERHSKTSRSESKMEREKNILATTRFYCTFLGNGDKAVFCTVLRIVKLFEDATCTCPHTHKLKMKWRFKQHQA
Chain of Beta-1 adrenergic receptor M90V|Y227A|F338M, P07700 M90V Y227A F338M (P07700 whole entry M90V/Y227A/F338M): as the sequence (P07700 whole entry R68S/M90V/V230A/F327A/A334L) above, with S68R, Y227A, A230V, A327F, L334A, F338M counted along it
Chain of Beta-1 adrenergic receptor G67A|G98A, P07700 G67A G98A (P07700 whole entry G67A/G98A): as the sequence (P07700 whole entry R68S/M90V/V230A/F327A/A334L) above, with G67A, S68R, V90M, G98A, A230V, A327F, L334A counted along it
Chain of Beta-1 adrenergic receptor R68S|M90V|V230A|A334L, P07700 R68S M90V V230A A334L (P07700 whole entry R68S/M90V/V230A/A334L): as the sequence (P07700 whole entry R68S/M90V/V230A/F327A/A334L) above, with A327F counted along it
Chain of Beta-1 adrenergic receptor M90V|Y227A, P07700 M90V Y227A (P07700 whole entry M90V/Y227A): as the sequence (P07700 whole entry R68S/M90V/V230A/F327A/A334L) above, with S68R, Y227A, A230V, A327F, L334A counted along it
Chain of Beta-1 adrenergic receptor R68S|A334L, P07700 R68S A334L (P07700 whole entry R68S/A334L): as the sequence (P07700 whole entry R68S/M90V/V230A/F327A/A334L) above, with V90M, A230V, A327F counted along it
Chain of Beta-1 adrenergic receptor G67A|G98A|V230A|D322A, P07700 G67A G98A V230A D322A (P07700 whole entry G67A/G98A/V230A/D322A): as the sequence (P07700 whole entry R68S/M90V/V230A/F327A/A334L) above, with G67A, S68R, V90M, G98A, D322A, A327F, L334A counted along it
Chain of Beta-1 adrenergic receptor R68S|M90V|Y227A|V230A|F327A|F338M, P07700 R68S M90V Y227A V230A F327A F338M (P07700 whole entry R68S/M90V/Y227A/V230A/F327A/F338M): as the sequence (P07700 whole entry R68S/M90V/V230A/F327A/A334L) above, with Y227A, L334A, F338M counted along it
Chain of Beta-1 adrenergic receptor R68S|M90V|Y227A|V230A|F327A|A334L, P07700 R68S M90V Y227A V230A F327A A334L (P07700 whole entry R68S/M90V/Y227A/V230A/F327A/A334L): as the sequence (P07700 whole entry R68S/M90V/V230A/F327A/A334L) above, with Y227A counted along it
Chain of Beta-1 adrenergic receptor G98A|D322A, P07700 G98A D322A (P07700 whole entry G98A/D322A): as the sequence (P07700 whole entry R68S/M90V/V230A/F327A/A334L) above, with S68R, V90M, G98A, A230V, D322A, A327F, L334A counted along it
Chain of Beta-1 adrenergic receptor M90V|I129V, P07700 M90V I129V (P07700 whole entry M90V/I129V): as the sequence (P07700 whole entry R68S/M90V/V230A/F327A/A334L) above, with S68R, I129V, A230V, A327F, L334A counted along it
Chain of Beta-1 adrenergic receptor R68S|Y227A|A234L|A334L, P07700 R68S Y227A A234L A334L (P07700 whole entry R68S/Y227A/A234L/A334L): as the sequence (P07700 whole entry R68S/M90V/V230A/F327A/A334L) above, with V90M, Y227A, A230V, A234L, A327F counted along it
Chain of Beta-1 adrenergic receptor R68S|A234L|A334L, P07700 R68S A234L A334L (P07700 whole entry R68S/A234L/A334L): as the sequence (P07700 whole entry R68S/M90V/V230A/F327A/A334L) above, with V90M, A230V, A234L, A327F counted along it
Chain of Beta-1 adrenergic receptor R68S|Y227A|A234L|A282L, P07700 R68S Y227A A234L A282L (P07700 whole entry R68S/Y227A/A234L/A282L): as the sequence (P07700 whole entry R68S/M90V/V230A/F327A/A334L) above, with V90M, Y227A, A230V, A234L, A282L, A327F, L334A counted along it
Chain of Beta-1 adrenergic receptor G67A|G98A|V230A, P07700 G67A G98A V230A (P07700 whole entry G67A/G98A/V230A): as the sequence (P07700 whole entry R68S/M90V/V230A/F327A/A334L) above, with G67A, S68R, V90M, G98A, A327F, L334A counted along it
Chain of Beta-1 adrenergic receptor M90V|F338M, P07700 M90V F338M (P07700 whole entry M90V/F338M): as the sequence (P07700 whole entry R68S/M90V/V230A/F327A/A334L) above, with S68R, A230V, A327F, L334A, F338M counted along it
Chain of Beta-1 adrenergic receptor Y227A|A234L|A334L, P07700 Y227A A234L A334L (P07700 whole entry Y227A/A234L/A334L): as the sequence (P07700 whole entry R68S/M90V/V230A/F327A/A334L) above, with S68R, V90M, Y227A, A230V, A234L, A327F counted along it

Substance	Tm	change of melting temperature, mutant - wild type (higher = more stable)
Beta-1 adrenergic receptor R68S|Y227A|A234L|A282L, P07700 R68S Y227A A234L A282L	41.6 °C	9.9 °C
Beta-1 adrenergic receptor R68S|M90V|Y227A|V230A|F327A|F338M, P07700 R68S M90V Y227A V230A F327A F338M	49 °C	17.3 °C
Beta-1 adrenergic receptor M90V|I129V, P07700 M90V I129V	40 °C	8.3 °C
Beta-1 adrenergic receptor Y227A|A234L|A334L, P07700 Y227A A234L A334L	41.6 °C	9.9 °C
Beta-1 adrenergic receptor M90V|Y227A, P07700 M90V Y227A	45.2 °C	13.5 °C
Beta-1 adrenergic receptor G67A|G98A|V230A|D322A, P07700 G67A G98A V230A D322A	40.9 °C	9.2 °C
Beta-1 adrenergic receptor R68S|M90V|V230A|F327A|A334L, P07700 R68S M90V V230A F327A A334L	47.3 °C and 48.4 °C	15.6 °C and 16.7 °C
Beta-1 adrenergic receptor R68S|A234L|A334L, P07700 R68S A234L A334L	41.9 °C	10.2 °C
Beta-1 adrenergic receptor M90V|F338M, P07700 M90V F338M	43 °C	11.3 °C
Beta-1 adrenergic receptor G98A|D322A, P07700 G98A D322A	35 °C	3.3 °C
Beta-1 adrenergic receptor R68S|A334L, P07700 R68S A334L	39.1 °C	7.4 °C
Beta-1 adrenergic receptor G67A|G98A|V230A, P07700 G67A G98A V230A	38 °C	6.3 °C
Beta-1 adrenergic receptor R68S|Y227A|A234L|A334L, P07700 R68S Y227A A234L A334L	43.7 °C	12 °C
Beta-1 adrenergic receptor G67A|G98A, P07700 G67A G98A	35.5 °C	3.8 °C
Beta-1 adrenergic receptor M90V|Y227A|F338M, P07700 M90V Y227A F338M	45.2 °C	13.5 °C
Beta-1 adrenergic receptor R68S|M90V|V230A|A334L, P07700 R68S M90V V230A A334L	46.9 °C	15.2 °C
Beta-1 adrenergic receptor R68S|M90V|Y227A|V230A|F327A|A334L, P07700 R68S M90V Y227A V230A F327A A334L	48.2 °C	16.5 °C
